Experimental data taken from the nanobody polyreactivity screen of Harvey et al. (2022).

Assay: yeast display, Sf9 membrane polyspecificity reagent, FACS + sequencing; frameworks hold sequencing errors
Summary of the method: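 After 36–48 hours of galactose induction, yeast (Saccharomyces cerevisiae BJ5465) displaying a synthetic nanobody library were stained at 4 °C for 1 hour with 10% biotinylated, detergent-solubilized Sf9 membrane reagent. Streptavidin microbeads enriched the stained cells before FACS sorting into low and high (top ~1%) gates on anti-HA and streptavidin fluorescence. Each clone's polyreactivity label reflects its gate of origin.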

Sequence	polyreactivity (PSR sort gate)
QVQLVESGGGLVQAGGSLRLSCAASGITFSRNVMGWSRQAPGKERELVAAISRSGGRTYYADSVKGRFTISRDNAMYTVYLQMNRLKPEDTAVYYCNRDIGGTSVLDDYWGQGNQVTVSS	low polyreactivity
QVQLVESGGGLVQAGGSLRLSCAASGGTFENYAMGWYRQPPGKERELVAAISSGGSTNYADSVKGRFTISRDNAKNTVYLQMNSLKQEDTAVYYCARYRVWGSTGHKLFHDDYWGQGTQVTVSS	low polyreactivity
QVQLVESGGGLVQPGGSLSLSCAASGFTFTYYAMGWYRQAPGKEMELVAAISWSGDSTYYADSVKGRFTISRDNAKNNVYLQMNSLKPEDSAVYYCGSEYSHTYDYWGQGTLVTVSS	low polyreactivity
QVQLVESGGGLVQAGGSLRLSCAASGFTFRDYAMGWYRQAPGKERELVATITWRVGSTFYADSVKGRFTISRDNAKNTVYLQMNSLKPEDTAVYYCADEDSNVVAYDYWGQGTQVTVSS	low polyreactivity
QVQLVESGGGLVQAGGSLRLSCAASGSTLTYNAMGWYRQAPGKERELVADITS	low polyreactivity
QVQLVESGGGLVQAGGSLRLSCAASGSSLWYNTMGWYRQAPGKERELVATISGSGANTYYADSVKGRFTISRDNAKNTDYLQMNSLKPEDTAGYYCAAVYRRWGYSSEYDYWGQGTQVTVSS	high polyreactivity
QVQLVESRGGLVQAGGSLRLSCAASGNTFYGYAMGWYRPAPGKERELVASITLSGDSTYYADSVKGRFTISRDNAKNTVYLQMNSLKPEDTAVYYCAGVYTYPLGYYHYTYDYWGQGTQVTVSS	low polyreactivity
QVQLVESGGGLVQAGGSLRLSCAASGLIFSSYAMGWYRQAPGKERELVAAISRSGGRTYYADSVKGRFTISRDNAKNTVYLQMNSLKPEDTAVYYCAADRFRSGLDRPEMDYWGQGTQVTVSS	high polyreactivity
QVQLVESGGGLVQAGGSLRLSCSASGFTFWVNAMGWYRQAPGKERELVAAISRRGGRTYYADSVKGRYTISRDNAKNTVYLQMNSLKPEDTAVYYCNKEDVGCSESDYWGQGTQVTVSS	high polyreactivity
QVQLVESGGGLVQAGGSLSLSCAASGSIFSYYAMGWYRQAPGKARELVAAITANGGSTSYADSVKGRFTISRDTANNTVYLQMNRLKPEDTAVYYCAKESDYPDFVSTKGDYDYWGQGTQVTVSS	low polyreactivity
QVQLVESGGGLVQAGGSLRLSCAASGSTFITYAMGWYRQAPGKERELVAAIRWSGGGTYYADSVKGRFTISRDTAKNTVYLQMNSLKPEDTAVYYCAADHFNYTTGRDYWGQGTQVTVSS	low polyreactivity
QVQLVESGGGLVQAGGSLRLRGAASGNTIRYYAMGWYRQAPGKERELVAAINSRGGTTSYADSVKGRFTISRDNAKNTVYLQMNSLKPEDTAVYYCNKYIRYPFKRYGYWGQGTQVTVSS	high polyreactivity
QVQLVESGGGLVQAGGSLRLSCAASGRIFRRNAMGWYRQAPGKEREFVATITSGGSTFYADSVKGRFTISRDNAKNTVYLQMNSLIPEDTAVYYCAAPYYNTPFHTPNYSWGQGTQVTVSS	low polyreactivity
QVQLVESGGGLVQAGGSLRLSCASSGRTISHNAMGWYRQAPGKERELVAAISRSGGRTYYADSVKGRFTISRYNAKNTVYLQMNSLKPEDTAVYYCAAEYFDGSTYSYYYWGQGTQVTVSS	high polyreactivity
QVQLVESGGGLVQAGGSLRLSCAASGSTLASNAKGWYRQAPGKERELVAAIRVSGASTYYADSVKGRFTISRDNAKNTVYLQMNSLKPEDTAVYYCAADYQFGVIYYYWGQGTQVTVSS	low polyreactivity
QVQLVESGGGLVQAGGSLRLSCAASGRTFRGYAMGWYRQAPGKERELVAAITSGGSTNYADSVKGRFTISRDNAKNTVYLQMNSLKPEDTAVYYCAAGRSTGQYRYYYWGQGTQVTVSS	high polyreactivity

Sequence	polyreactivity (PSR sort gate)
QVQLVESGGGLVQAGGSLRLSCAASGYIFQPYAMGWYRQAPGKERELVAAISWRGGSTYYADSVKGRFTISRDNAKNTVYLQMNSLKPEDTAVYYCAVDAWDTTHVYEQGAERDSWGQGTQVTVSS	low polyreactivity
QVQLVESGGGLVQAGGSLRLSCAASGSIFRAYAMGWYRQAPGKERELVAAISWGGGSTSYADSVKGRFTISRDNAKNTVYLQMNSLKPEDTAVYFCNKVSFSKRRDYYWGQGTQVTVSS	high polyreactivity
QVQLVESGGGLVQAGASLRLSCAASGSIFRGNAMGWYRQAPGKERQLVAAITRSGGRTYYADSVKGRFTISRDNAKNTVYLQMISMKPEDTAVYYCAAVSSYSRYRRTYYYWGHGTQVTVSS	high polyreactivity
QVQLVESGGGLVQAGGSLRLSCAASGLTFEWYTMGWYRQAPGKERALVAVITVSGSSTYYADSVKGRFSISRDNAKNTVYFQMNSLKPEDTAVYYCNADWSFYSYTLYDYWGQGTQVTVSS	low polyreactivity
QVQLVESGGGLVQAGGSLRLSCAASGIILRYYAMGWYRQAPGKERELVAAITRGGSTNYADSVKGRFTISRDNAKNTVYLQMNSLKPEDTAVYYCAADVVFWFSNVAWGDFGYWGQGTQVTVSS	low polyreactivity
QDQLVESGGGLVQAGGSLRLSCAASGRTFSYYTMGWYRQPPGKERELVARISNRGTNTYYADSVKGRFTISRDNAKNTVYLQLNSLKPEDTAVYYCAKYYYPSIVGYDSWGQGTQVTVSS	low polyreactivity
QVQLVESGGGLVQAGGSLRLSCAASGSTFNYYAMGWYRPAPGKERELVAAISWSGGSTYYADSVKGRFTISRDNAKNTVYLQMNSLKPEDTAVYYCAAYPARPWARGDRRRIRFWGQGTQVTVSS	high polyreactivity
QVQLVESGGGLVQAGGSLRLSCAASGSIFSTYAMGWYRQAPGKERELVAAISQGGSSTYYADSVKGRFTISRDIAKNTVYLQMKSLKAEDTAVYYCAKFPYLKFGYDYWGQCTQVTVSS	high polyreactivity
QVQLVESGGGLVQAGGSLRLSCAASGFTFYRNAMGWYRQAPGKERELVAAITWSGTSTYYADSVKGRFTISRDNAKNTVYLQMNSPKPEDTAVYYCNTVGYRGRSNSRFYYWGQGTQVTVSS	high polyreactivity
QVQLVESGGGLVQAGGSLRLSCAASGNIFSINAMGWYRQAPGKERELVAAISWSGGSTYYADSVKGRFTISRDNAKNTVYLQMNSLKPEDTAVYYCAADVYYLGYYEYYYWGQGTQVTVSS	high polyreactivity
QVLLVESGGGLVQAGGSLRLSCAASGFIFPYNAMGWYRQAPGKERELVASISGSGRTNYADSVKGRFTISRDNAKNTVYLQMNSLKPEDTAVYYCNKRWYVQKGYDYWGQGTQVTVSS	high polyreactivity
QVQLVESGGGLVQAGGSLRLSCAASGSTFVYNAMGWYRQAPGKERELVAAITVIGGRTYYADSVKGRFTISRDNAKNTVYLQMNSLKPEDTAVYYCNADATESIGYYDEYEYWGQGTQVTVSS	low polyreactivity
QVQLLESGGGIVQAGGSLRLSCAASGSIFRYYAMGWYRQAPGKEREFVASITYRGGRTYYADSVKGRFTISRDNAKNTVYLQMNSLKPEDTAVYYCAARTRAGAWTSKYHDYWGQGTQVTVSS	high polyreactivity
QVQLVESGGGLVQAGGSLRLSCAASGFIFYYYAMGWYRQAPGKEREFVAGISRSGGSTYYADSVKGRFTISRDHAKNTVNLLQNSLKTEDTAVYYCNARPLYHFWYYSGEEYGYWGQGTQVTVSS	high polyreactivity
QVQLVESGGGLVQAGGSLRLSCAASGRTFYSYAMGWYRQAPGKERELVAAISKRGTSTYYADSVKGRFTISRDNAKNTVYLQMNSLKPEDTAVYYCAAAYRGREVEYNSWGQGTQVTVSS	high polyreactivity
QGQLQESGGGLVQAAGSLRMSCAASGTIFSEANMGWYRQAPGQVRELVATIGQGSTTNYADSVKGRFTISRDNAKNTVYLQMISLKPEETGVYYCAVVTVDPVGFVYWGQGTQVTVSS	low polyreactivity
